For this assay, the target named is human CD3 (human) (UniProt P09693). The experiment in a line: cell-based or functional assay.

The results in this text go back to patent US20250009780A1, “AGENTS ENCODING CLDN6 AND CD3 BINDING ELEMENTS FOR TREATING CLDN6-POSITIVE CANCERS” (BIONTECH SE, priority 2021, published 2025).

Sequence of human CD3 (human) (chain, as listed by the source, chain 1 of 3): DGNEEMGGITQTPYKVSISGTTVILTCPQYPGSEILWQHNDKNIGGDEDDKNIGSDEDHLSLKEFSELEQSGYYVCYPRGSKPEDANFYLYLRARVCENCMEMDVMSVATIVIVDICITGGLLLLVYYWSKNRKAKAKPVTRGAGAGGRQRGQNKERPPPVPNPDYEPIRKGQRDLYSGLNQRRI
Sequence of human CD3 (human) (P09693 23-182, chain 2 of 3): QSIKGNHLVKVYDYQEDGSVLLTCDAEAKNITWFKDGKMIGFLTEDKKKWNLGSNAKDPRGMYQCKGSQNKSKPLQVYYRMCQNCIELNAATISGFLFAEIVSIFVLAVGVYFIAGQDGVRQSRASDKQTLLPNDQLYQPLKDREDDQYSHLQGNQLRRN
Sequence of human CD3 (human) (P04234 22-171, chain 3 of 3): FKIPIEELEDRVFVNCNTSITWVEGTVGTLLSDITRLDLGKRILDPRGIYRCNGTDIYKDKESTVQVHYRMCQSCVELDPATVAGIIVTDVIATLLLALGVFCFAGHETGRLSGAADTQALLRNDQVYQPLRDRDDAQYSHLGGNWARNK

The substance OKT3 antibody gave a T-cell activation (CD69/CD25, flow cytometry, 48 h) above 50%.
